The values below come from publication PMC8627417 (Journal for Immunotherapy of Cancer, 2021).

The target of the test is receptor of advanced glycation end products (RAGE) (UniProt Q15109 23-404).
Chain of receptor of advanced glycation end products (RAGE) (Q15109 23-404): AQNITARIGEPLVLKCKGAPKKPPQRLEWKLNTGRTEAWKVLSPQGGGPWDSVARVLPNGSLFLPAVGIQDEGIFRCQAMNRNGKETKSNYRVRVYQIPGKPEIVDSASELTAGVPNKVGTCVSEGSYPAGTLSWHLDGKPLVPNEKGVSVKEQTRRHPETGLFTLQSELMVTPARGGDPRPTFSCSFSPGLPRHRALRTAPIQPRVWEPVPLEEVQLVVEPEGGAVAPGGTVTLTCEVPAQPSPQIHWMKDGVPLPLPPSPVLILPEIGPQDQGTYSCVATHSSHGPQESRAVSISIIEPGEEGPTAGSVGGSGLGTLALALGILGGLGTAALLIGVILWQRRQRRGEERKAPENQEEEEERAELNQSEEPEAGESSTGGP

B1: chitinase 3-like 1 (CHI3L1) (natural protein)
chain: not shown
What is called Kd is the constant that tells how readily two partners part at equilibrium. Take B1: the Kd was ~16 nM.
